The RNAGym collection of RNA variant scans (doi:10.7554/elife.80360)

B1: CPEB3 Ribozyme (parent)
chain: GGGGGCCACAGCAGAAGCGUUCACGUCGCGGCCCCUGUCAGAUUCUGGUGAAUCUGCGAAUUCUGCUGU

Variants of: B1
Test: self-cleavage, relative activity (ratio to wild type); higher = more cleavage; co-transcriptional
Variant U38C G56A has a self-cleavage of 0.879.
U38C G56C gave a self-cleavage of 0.401.
For U38C G56U, the self-cleavage was 0.658.
For U38C G58A, the self-cleavage was 0.895.
Work on U38C G58C yielded a self-cleavage of 0.929.
Variant U38C G58U has a self-cleavage of 1.01.
In the case of U38C G65A, the self-cleavage is reported as 0.746.
Variant U38C G65C has a self-cleavage of 0.519.
Work on U38C G65U yielded a self-cleavage of 0.495.
In the case of U38C G68A, the self-cleavage is reported as 0.992.
U38C G68C showed a self-cleavage of 0.975.
For U38C G68U, the self-cleavage was 0.997.
U38C U43A showed a self-cleavage of 0.8.
U38C U43C showed a self-cleavage of 0.858.
U38C U44A gave a self-cleavage of 0.891.
With U38C U44C the self-cleavage was 0.856.
With U38C U46A the self-cleavage was 0.943.
With U38C U46C the self-cleavage was 0.966.
Variant U38C U49C has a self-cleavage of 0.999.
In the case of U38C U49G, the self-cleavage is reported as 0.916.
Work on U38C U55A yielded a self-cleavage of 0.733.
For U38C U55C, the self-cleavage was 0.556.
With U38C U61C the self-cleavage was 0.57.
Work on U38C U62C yielded a self-cleavage of 0.633.
U38C U62G gave a self-cleavage of 0.717.
For U38C U64C, the self-cleavage was 0.662.
U38C U64G gave a self-cleavage of 0.785.
U38C U67A showed a self-cleavage of 0.931.
For U38C U67C, the self-cleavage was 0.949.
Work on U38C U69A yielded a self-cleavage of 0.988.
U38C U69C showed a self-cleavage of 1.06.
Work on U38G A42C yielded a self-cleavage of 0.264.
With U38G A42G the self-cleavage was 0.189.
With U38G A42U the self-cleavage was 0.178.
Variant U38G A51C has a self-cleavage of 0.293.
For U38G A52C, the self-cleavage was 0.275.
For U38G A52G, the self-cleavage was 0.327.
U38G A59C gave a self-cleavage of 0.232.
U38G A59G showed a self-cleavage of 0.132.
In the case of U38G A60G, the self-cleavage is reported as 0.249.
With U38G A60U the self-cleavage was 0.331.
Variant U38G C39A has a self-cleavage of 0.8.
Work on U38G C45A yielded a self-cleavage of 0.286.
Variant U38G C45U has a self-cleavage of 0.28.
Variant U38G C54A has a self-cleavage of 0.304.
Work on U38G C57A yielded a self-cleavage of 0.161.
Variant U38G C57U has a self-cleavage of 0.282.
In the case of U38G C63A, the self-cleavage is reported as 0.155.
For U38G C66A, the self-cleavage was 0.285.
U38G C66G gave a self-cleavage of 0.229.
For U38G C66U, the self-cleavage was 0.194.
For U38G G41C, the self-cleavage was 0.226.
For U38G G47A, the self-cleavage was 0.272.
For U38G G47U, the self-cleavage was 0.219.
For U38G G48C, the self-cleavage was 0.236.
Work on U38G G48U yielded a self-cleavage of 0.266.
For U38G G50U, the self-cleavage was 0.271.
U38G G56A showed a self-cleavage of 0.722.
Variant U38G G56C has a self-cleavage of 0.237.
Work on U38G G56U yielded a self-cleavage of 0.672.
For U38G G58A, the self-cleavage was 0.257.
U38G G58C showed a self-cleavage of 0.236.
U38G G65A gave a self-cleavage of 0.257.
With U38G G65U the self-cleavage was 0.28.
For U38G G68A, the self-cleavage was 0.259.
Work on U38G U43A yielded a self-cleavage of 0.247.
Variant U38G U43C has a self-cleavage of 0.161.
U38G U43G showed a self-cleavage of 0.213.
For U38G U44C, the self-cleavage was 0.273.
For U38G U44G, the self-cleavage was 0.346.
U38G U46A showed a self-cleavage of 0.233.
Work on U38G U46C yielded a self-cleavage of 0.294.
U38G U49A showed a self-cleavage of 0.178.
With U38G U49C the self-cleavage was 0.231.
With U38G U49G the self-cleavage was 0.264.
U38G U55A gave a self-cleavage of 0.196.
U38G U55C showed a self-cleavage of 0.172.
U38G U55G showed a self-cleavage of 0.283.
Work on U38G U62C yielded a self-cleavage of 0.261.
Variant U38G U64A has a self-cleavage of 0.163.
For U38G U64C, the self-cleavage was 0.235.
U38G U64G showed a self-cleavage of 0.25.
Variant U38G U67A has a self-cleavage of 0.295.
With U38G U67C the self-cleavage was 0.302.
U38G U67G gave a self-cleavage of 0.273.
Variant U38G U69A has a self-cleavage of 0.352.
With U38G U69C the self-cleavage was 0.412.
U38G U69G showed a self-cleavage of 0.42.
C39A showed a self-cleavage of 0.903.
For C39A A40C, the self-cleavage was 0.835.
Variant C39A A40G has a self-cleavage of 0.841.
Work on C39A A40U yielded a self-cleavage of 0.475.
Variant C39A A42C has a self-cleavage of 0.476.
For C39A A42G, the self-cleavage was 0.35.
For C39A A51C, the self-cleavage was 0.654.
In the case of C39A A51G, the self-cleavage is reported as 0.802.
C39A A52C showed a self-cleavage of 0.67.
Variant C39A A52G has a self-cleavage of 0.833.
With C39A A52U the self-cleavage was 0.673.
Work on C39A A59C yielded a self-cleavage of 0.386.
Work on C39A A60C yielded a self-cleavage of 0.286.
C39A A60G showed a self-cleavage of 0.606.
With C39A A60U the self-cleavage was 0.24.
C39A C45A gave a self-cleavage of 0.64.
Work on C39A C45U yielded a self-cleavage of 0.708.
For C39A C54A, the self-cleavage was 0.583.
For C39A C54G, the self-cleavage was 0.427.
Work on C39A C54U yielded a self-cleavage of 0.765.
Work on C39A C57G yielded a self-cleavage of 0.327.
For C39A C57U, the self-cleavage was 0.346.
Variant C39A C63A has a self-cleavage of 0.465.
In the case of C39A C63G, the self-cleavage is reported as 0.407.
In the case of C39A C63U, the self-cleavage is reported as 0.776.
With C39A C66A the self-cleavage was 0.435.
C39A C66U gave a self-cleavage of 0.828.
In the case of C39A G41U, the self-cleavage is reported as 0.277.
C39A G47A showed a self-cleavage of 0.949.
In the case of C39A G47U, the self-cleavage is reported as 0.919.
For C39A G48A, the self-cleavage was 0.968.
C39A G50A showed a self-cleavage of 0.912.
Variant C39A G50C has a self-cleavage of 0.602.
Work on C39A G50U yielded a self-cleavage of 0.847.
With C39A G56A the self-cleavage was 0.898.
In the case of C39A G56C, the self-cleavage is reported as 0.904.
Variant C39A G56U has a self-cleavage of 0.984.
In the case of C39A G58A, the self-cleavage is reported as 0.625.
In the case of C39A G58U, the self-cleavage is reported as 0.948.
C39A G65A gave a self-cleavage of 0.478.
With C39A G65C the self-cleavage was 0.361.
C39A G65U gave a self-cleavage of 0.397.
C39A G68C gave a self-cleavage of 0.932.
With C39A G68U the self-cleavage was 0.976.
C39A U43A showed a self-cleavage of 0.386.
Variant C39A U43C has a self-cleavage of 0.517.
In the case of C39A U44A, the self-cleavage is reported as 0.638.
Work on C39A U44C yielded a self-cleavage of 0.432.
Variant C39A U44G has a self-cleavage of 0.562.
Work on C39A U46C yielded a self-cleavage of 0.808.
Variant C39A U46G has a self-cleavage of 0.957.
Variant C39A U49A has a self-cleavage of 0.902.
C39A U53A gave a self-cleavage of 0.447.
For C39A U53C, the self-cleavage was 0.37.
C39A U53G gave a self-cleavage of 0.351.
C39A U55C gave a self-cleavage of 0.736.
In the case of C39A U55G, the self-cleavage is reported as 0.808.
In the case of C39A U61C, the self-cleavage is reported as 0.328.
Work on C39A U61G yielded a self-cleavage of 0.402.
With C39A U62A the self-cleavage was 0.549.
In the case of C39A U64C, the self-cleavage is reported as 0.544.
For C39A U67A, the self-cleavage was 0.846.
Work on C39A U67C yielded a self-cleavage of 0.918.
In the case of C39A U67G, the self-cleavage is reported as 0.932.
C39A U69G showed a self-cleavage of 0.964.
Variant C39G has a self-cleavage of 0.967.
Variant C39G A40C has a self-cleavage of 0.606.
In the case of C39G A40U, the self-cleavage is reported as 0.644.
In the case of C39G A42C, the self-cleavage is reported as 0.553.
In the case of C39G A42G, the self-cleavage is reported as 0.739.
C39G A42U showed a self-cleavage of 0.725.
Work on C39G A51C yielded a self-cleavage of 0.718.
Variant C39G A51G has a self-cleavage of 0.924.
C39G A51U showed a self-cleavage of 0.853.
Work on C39G A52C yielded a self-cleavage of 0.89.
C39G A52G showed a self-cleavage of 0.917.
Work on C39G A52U yielded a self-cleavage of 0.858.
C39G A59C gave a self-cleavage of 0.488.
C39G A59U gave a self-cleavage of 0.587.
